Measured values: paper PMC3040262 (Biochemistry, 2011)

Target: PP1α_(7-330), His6-tag removed by TEV protease (UniProt P62136 7-330)
Assay: SEC

PP1α_(7-330), His6-tag removed by TEV protease, sequence (P62136 7-330): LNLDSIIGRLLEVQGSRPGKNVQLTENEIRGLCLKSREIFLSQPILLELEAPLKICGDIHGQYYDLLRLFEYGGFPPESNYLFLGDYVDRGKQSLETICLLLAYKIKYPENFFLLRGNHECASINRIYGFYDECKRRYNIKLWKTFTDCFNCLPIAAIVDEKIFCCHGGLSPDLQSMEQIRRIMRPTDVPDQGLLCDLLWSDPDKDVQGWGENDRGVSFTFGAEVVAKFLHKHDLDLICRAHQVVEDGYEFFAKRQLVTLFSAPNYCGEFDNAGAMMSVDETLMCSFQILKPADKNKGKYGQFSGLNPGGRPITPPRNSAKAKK

B1: spinophilin_(417-583) (domain or fragment)
chain: not shown
  stoichiometry N: 1
